{
  "source": "patent US20240390468A1",
  "about": "“SURVIVIN AND MAGE-A9 DUAL-TARGETED IMMUNOTHERAPY” (IMMUNOVACCINE TECHNOLOGIES INC., priority 2022, published 2024)",
  "molecules": {"B1": {"name": "recombinant MAGE-A9: his-tag MAGE-A9 full-length recombinant protein used as immunogen admixed with poly(I:C) (protein, UniProt P43362 1-315, looked up)", "chain": "MSLEQRSPHCKPDEDLEAQGEDLGLMGAQEPTGEEEETTSSSDSKEEEVSAAGSSSPPQSPQGGASSSISVYYTLWSQFDEGSSSQEEEEPSSSVDPAQLEFMFQEALKLKVAELVHFLLHKYRVKEPVTKAEMLESVIKNYKRYFPVIFGKASEFMQVIFGTDVKEVDPAGHSYILVTALGLSCDSMLGDGHSMPKAALLIIVLGVILTKDNCAPEEVIWEALSVMGVYVGKEHMFYGEPRKLLTQDWVQENYLEYRQVPGSDPAHYEFLWGSKAHAETSYEKVINYLVMLNAREPICYPSLYEEVLGEEQEGV", "modifications": "full-length His tag"}},
  "test_system": "splenocytes of A2/DR1 mice",
  "test": "IFN-γ ELISA after stimulation of spleen cells with peptides",
  "assay_type": "cell-based",
  "description": "FIG. 25 depicts cytokine response upon stimulation with reactive HLA-A2 MAGE-A9 peptides. Groups of three A2/DR1 mice were either not immunized (naive mice) or immunized twice with a pool of four reactive peptides in CTL assays (M9-A2-24; M9-A2-111; M9-A2-223; M9-A2-270) or with adjuvants only, as control. Mice were sacrificed after 28 days and spleens were collected for isolation of splenocytes. Splenocytes were restimulated for 72 h with either individual peptides or the peptide pool. Supernatant was collected and assayed by ELISA for secretion of murine INF-7. Bars represent mean of triplicate plus or minus standard deviation (SD). Tukey's multiple comparisons test was used to determine adjusted p values. *=p<0.05, **=p<0.01, ***=p<0.001, ****=p<0.0001.\nINF-γ secreted after stimulation of spleen cells with the four peptides were tested by ELISA.\nSupernatants from cultures of whole splenocytes stimulated with the irradiated splenocytes loaded with the peptides were collected after 72 hours of stimulation and the amounts of IFN-γ were estimated by sandwich ELISA using the mouse IFN-γ ELISA Max set Deluxe kit (BioLegend, San Diego, CA).",
  "data": [
    {"molecule": "B1", "values": [
      {"measurement": "subtype of T cells induced after immunization", "value": "Th1 subtype"}
    ]}
  ]
}
